This data set is described as follows: protein stability index of a GFP-peptide fusion (GPS, HEK-293T) (PSI 1-6); higher = more stable. The conditions noted are these: c terminus: a fixed tail appended.

± gives the standard deviation.
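Also: 24-mer peptide tiles fused after GFP, lentivirally expressed, FACS-sorted into six equal bins by GFP/DsRed ratio, decoded by Illumina sequencing, PSI is the read-weighted mean bin number.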

DDEEVDTHFASQEFFSANAISDQL [ADAMTSL2]: the protein stability index runs as follows: (treatment: DMSO) 5.27 ± 0.23; (treatment: MLN4924 1 uM, 8 h) 5.21 ± 0.15.
Take SFAQLKNLKWLDLKDNPLDPVLAK [LRRC59]: the protein stability index is 2.98 ± 0.096 (treatment: DMSO) and 2.96 ± 0.33 (treatment: MLN4924 1 uM, 8 h).
Regarding QHSVPLQLELRAGAERLDALLADE [TRADD], the protein stability index by setting is: (treatment: DMSO) 4.63 ± 0.31; (treatment: MLN4924 1 uM, 8 h) 4.62 ± 0.47.
Regarding EQHNWNIEAAVQDRLNEQEGVPSV [FAF2], the protein stability index runs as follows: (treatment: DMSO) 5.05 ± 0.22; (treatment: MLN4924 1 uM, 8 h) 5.17 ± 0.32.
For PPKVKAEDGMQCLQLKETLATQEP [DLC1], in that order: 5.3 ± 0.17 and 5.16 ± 0.2.
The corresponding values for DIYYNNMEEVCGGEKPYLSPDILE [ATL3] are 3.72 ± 0.57 and 3.59 ± 0.27.
The corresponding values for QWLKDKILSEEGRRQQAKLKELQA [KCNAB2] are 3.13 ± 0.56 and 3.32 ± 0.13.
For EAVESRGGVPGGCVLVPRADLRLG [SMAD6], the protein stability index reads like this: (treatment: DMSO) 4.07 ± 0.47; (treatment: MLN4924 1 uM, 8 h) 4.34 ± 0.17.
Turning to SGAGGTGGPAGQAGRGGAAGTAGV [MYOZ1], the protein stability index reads like this: (treatment: DMSO) 5.07 ± 0.2; (treatment: MLN4924 1 uM, 8 h) 4.93 ± 0.17.
ECTQMDHLGCMHYTVRAPVGVAGL [ALDH8A1] had a protein stability index (treatment: DMSO) of 2.51 ± 0.37 and a protein stability index (treatment: MLN4924 1 uM, 8 h) of 2.68 ± 0.36.
Turning to SCCMTEEIFGPVTCVVPFDSEEEV [ALDH8A1], the protein stability index turned out to be 4.71 ± 0.34 (treatment: DMSO) and 4.83 ± 0.27 (treatment: MLN4924 1 uM, 8 h).
For SYSQSSNLFRHQRRHNAEKLLNVV [ZNF24], in that order: 2.58 ± 0.27 and 2.97 ± 0.41.
Turning to RLKLMQQNPAGELEGFQAQGHPPS [ATE1], the protein stability index runs as follows: (treatment: DMSO) 4.29 ± 0.18; (treatment: MLN4924 1 uM, 8 h) 4.31 ± 0.12.
The corresponding values for CFQSCLCCCCYQSKSLMTSVPMNG [EDNRA] are 2.31 ± 0.53 and 2.41 ± 0.18.
The corresponding values for RTAQSEETRVWHRRDGKWQIVHFH [CAMK2A] are 3.15 ± 0.16 and 3.12 ± 0.26.
For EPSSDPSLLGEPCAGPGFTHNIAH [SPAG8], in that order: 4.65 ± 0.074 and 4.52 ± 0.22.
On to KQECLITTFQDVYFVSESFEDAKE [TPH1], for which the protein stability index runs as follows: (treatment: DMSO) 4.08 ± 0.73; (treatment: MLN4924 1 uM, 8 h) 4.45 ± 0.36.
For EDQKLQVLLTQIESKKHQVETAFE [TRIM15], in that order: 4.29 ± 0.22 and 4.51 ± 0.29.
For YDYLRKLFTDLFDRKGYMFDYEYD [CSNK1G3], the protein stability index reads like this: (treatment: DMSO) 2.11 ± 0.76; (treatment: MLN4924 1 uM, 8 h) 2 ± 0.3.
For YKSVLQAVQKTDEGHPFKAYLELE [RTN1], in that order: 3.43 ± 0.12 and 3.54 ± 0.21.
The corresponding values for SYSREHEGRLRYPSRREPPPRRSR [CLK3] are 5.28 ± 0.2 and 5.01 ± 0.48.
The corresponding values for ISENRKRQWPTKSQTDRGASAGKR [SDE2] are 4.7 ± 0.28 and 4.94 ± 0.073.
In the case of NYLAEHCPPLHIPGSMSEVQELCK [TNNI2], the protein stability index runs as follows: (treatment: DMSO) 3.91 ± 0.19; (treatment: MLN4924 1 uM, 8 h) 3.78 ± 0.11.
The corresponding values for KDRECQSQSLALKEQNNLKQLEFG [ZNF8] are 4.56 ± 0.3 and 4.78 ± 0.63.
For KNTTYDLIANIVHDGKPSEGSYRI [USP39], in that order: 2.62 ± 0.4 and 2.52 ± 0.32.
MLTTRVFSLVGKRAISTSVCVRAH [COX4I1]: the protein stability index by setting is: (treatment: DMSO) 2.56 ± 0.64; (treatment: MLN4924 1 uM, 8 h) 2.4 ± 0.59.
For LVQTTDFFYPLVEDPYMMGRIACA [SEPHS2], in that order: 2.34 ± 0.47 and 2.23 ± 0.29.
In the case of LVLVVNTLRRIQASMAPAAALPPV [SERTAD1], the protein stability index runs as follows: (treatment: DMSO) 2.35 ± 0.099; (treatment: MLN4924 1 uM, 8 h) 2.33 ± 0.2.
In turn, PPVRPAGYLLSFHTPGGQNQEILL [TNXB] yielded a protein stability index (treatment: DMSO) of 2.38 ± 0.29 and a protein stability index (treatment: MLN4924 1 uM, 8 h) of 2.38 ± 0.31.
In the case of RVDHGAEIITQSPGRSSVASPRRL [MAP2], the protein stability index (treatment: DMSO) is 4.45 ± 0.13 and the protein stability index (treatment: MLN4924 1 uM, 8 h) was found to be 4.71 ± 0.17.
For CNECGKAFRWGAHLVQHQRIHSGE [ZNF232], in that order: 4.44 ± 0.56 and 4.53 ± 0.26.
The corresponding values for QTWVRDHHPENGEEAVTVLEDLES [ZNF24] are 5.34 ± 0.21 and 5.43 ± 0.17.
For ILRAIGKGSFGKVCIVQKNDTKKM [STK32A], in that order: 2.4 ± 0.45 and 2.56 ± 0.22.
For ITFSGRPSRVHASEVESAVWYVKK [FBXO39], the protein stability index is 2.41 ± 0.21 (treatment: DMSO) and 2.68 ± 0.32 (treatment: MLN4924 1 uM, 8 h).
In turn, CEKTFRDKNTLKDHMRKKQHRKIN [ZNF277] returned a protein stability index (treatment: DMSO) of 3.77 ± 0.21 and a protein stability index (treatment: MLN4924 1 uM, 8 h) of 3.71 ± 0.31.
For VDNIDMIDGDGDDMERFMEEMREL [BEX5], in that order: 5.27 ± 0.41 and 5.26 ± 0.21.

For the origin of these results see the supplement of paper PMC10567573.
